Source: article PMC7211993
pKd: −log10 of the molar value.

Legend:
[1] = biological target: MDA-modified bovine serum albumin (bovine) (UniProt P02769); assay: ELISA; plasma added to coated MDA-BSA; bound CFH/FHL-1 detected with a monoclonal antibody that recognizes SCR5; read-out RLU/100 ms
[2] = biological target: MDA-modified bovine serum albumin (bovine) (UniProt P02769); assay: MST; microscale thermophoresis with both binding partners in fluid phase

complement factor H and its splice variant factor H-like protein 1 in plasma (study cohorts, all rs1061170 genotypes), sequence (P08603 19-1231, change not shown): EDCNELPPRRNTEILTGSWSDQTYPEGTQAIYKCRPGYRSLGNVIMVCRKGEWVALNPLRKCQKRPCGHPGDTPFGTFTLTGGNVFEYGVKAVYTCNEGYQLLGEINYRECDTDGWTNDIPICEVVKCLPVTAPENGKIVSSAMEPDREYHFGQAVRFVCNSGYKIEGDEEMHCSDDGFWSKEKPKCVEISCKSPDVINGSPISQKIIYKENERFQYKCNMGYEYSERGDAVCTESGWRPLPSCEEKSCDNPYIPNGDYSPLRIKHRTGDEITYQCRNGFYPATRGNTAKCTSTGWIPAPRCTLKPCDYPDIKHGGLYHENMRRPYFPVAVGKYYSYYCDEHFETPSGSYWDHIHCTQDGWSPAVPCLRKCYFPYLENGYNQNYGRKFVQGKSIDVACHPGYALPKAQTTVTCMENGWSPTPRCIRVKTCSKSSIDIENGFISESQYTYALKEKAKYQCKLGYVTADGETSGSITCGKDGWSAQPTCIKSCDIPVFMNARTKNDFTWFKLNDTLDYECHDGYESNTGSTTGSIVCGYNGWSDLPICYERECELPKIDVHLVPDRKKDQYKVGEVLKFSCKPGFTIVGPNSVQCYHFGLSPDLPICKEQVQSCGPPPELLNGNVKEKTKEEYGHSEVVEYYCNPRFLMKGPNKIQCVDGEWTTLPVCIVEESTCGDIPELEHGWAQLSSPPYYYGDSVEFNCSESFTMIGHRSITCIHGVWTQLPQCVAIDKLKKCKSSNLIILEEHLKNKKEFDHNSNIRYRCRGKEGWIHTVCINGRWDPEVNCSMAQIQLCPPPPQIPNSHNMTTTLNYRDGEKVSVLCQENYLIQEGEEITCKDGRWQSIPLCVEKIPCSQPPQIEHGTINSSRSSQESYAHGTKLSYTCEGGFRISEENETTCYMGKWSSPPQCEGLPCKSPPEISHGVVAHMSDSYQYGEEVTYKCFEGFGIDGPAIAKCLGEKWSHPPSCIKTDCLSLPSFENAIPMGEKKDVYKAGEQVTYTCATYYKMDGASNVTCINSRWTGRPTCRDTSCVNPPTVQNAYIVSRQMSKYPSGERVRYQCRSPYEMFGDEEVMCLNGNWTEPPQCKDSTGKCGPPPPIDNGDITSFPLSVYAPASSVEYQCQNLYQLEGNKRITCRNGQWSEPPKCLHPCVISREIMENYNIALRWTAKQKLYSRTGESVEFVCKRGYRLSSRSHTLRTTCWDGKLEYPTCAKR
MDA-modified bovine serum albumin (bovine), sequence (P02769 25-607): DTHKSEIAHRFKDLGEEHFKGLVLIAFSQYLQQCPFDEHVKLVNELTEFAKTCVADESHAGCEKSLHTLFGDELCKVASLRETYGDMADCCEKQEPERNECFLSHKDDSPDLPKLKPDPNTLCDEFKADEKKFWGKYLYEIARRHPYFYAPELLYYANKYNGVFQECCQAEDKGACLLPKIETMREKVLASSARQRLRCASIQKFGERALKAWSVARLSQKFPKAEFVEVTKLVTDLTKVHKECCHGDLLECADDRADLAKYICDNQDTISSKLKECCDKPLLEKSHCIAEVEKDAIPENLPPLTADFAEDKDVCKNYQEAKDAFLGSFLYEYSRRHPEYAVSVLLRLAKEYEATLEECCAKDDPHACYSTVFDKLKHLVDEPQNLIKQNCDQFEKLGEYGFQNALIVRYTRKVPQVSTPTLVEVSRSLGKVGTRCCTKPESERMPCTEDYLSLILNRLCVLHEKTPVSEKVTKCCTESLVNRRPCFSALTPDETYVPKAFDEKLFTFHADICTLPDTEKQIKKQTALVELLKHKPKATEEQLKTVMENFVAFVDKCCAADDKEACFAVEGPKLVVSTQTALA

binding to MDA-BSA, median of healthy individuals (n = 934) [1] [RLU/100 ms]	binding to MDA-BSA, median of patients with major depression (n = 896) [1] [RLU/100 ms]	binding to MDA-BSA, median of the integrated cohort (n = 1,830) [1] [RLU/100 ms]	pKd [2]	Substance
24200	24800	24600		complement factor H and its splice variant factor H-like protein 1 in plasma (study cohorts, all rs1061170 genotypes) (from UniProt P08603 19-1231) (natural protein)
			6.07	recombinant complement factor H-related protein 1 (from UniProt Q03591 19-330) (natural protein)
			5.46	recombinant complement factor H-related protein 3 (from UniProt Q02985 19-330) (natural protein)
